± gives the uncertainty stated by the source.
B1: Formin-binding protein 4, residues 593 to 636; numbered along this chain, Q8N3X1 (parent)
chain: EINATPKGWSCHWDRDHRRYFYVNEQSGESQWEFPDGEEEEEES

Variants of: B1
Assay: abundance fitness (aPCA) (normalised: wild type 0, dead -1); higher = more abundant; growth selection in yeast, the domain comes from the species named
Conditions: Homo sapiens

Variant | abundance fitness
EINATPKGWSCHWDRDHRRYFYVNEQSGERQWEFPDGEEEEEES | 0.27 ± 0.081
EINATPKGWSCHWDRDHRRYFYVNEQSGEWQWEFPDGEEEEEES | 0.02 ± 0.11
EINATPKGWSCHWDRDHRRYFYVNEQSGETQWEFPDGEEEEEES | 0.067 ± 0.083
EINATPKGWSCHWDRDHRRYFYVNEQSGEMQWEFPDGEEEEEES | 0.04 ± 0.17
EINATPKGWSCHWDRDHRRYFYVNEQSGEVQWEFPDGEEEEEES | 0.094 ± 0.072
EINATPKGWSCHWDRDHRRYFYVNEQSGEQQWEFPDGEEEEEES | 0.15 ± 0.12
EINATPKGWSCHWDRDHRRYFYVNEQSGELQWEFPDGEEEEEES | -0.03 ± 0.1
EINATPKGWSCHWDRDHRRYFYVNEQSGEPQWEFPDGEEEEEES | -0.174 ± 0.083
EINATPKGWSCHWDRDHRRYFYVNEQSGESQWKFPDGEEEEEES | -0.232 ± 0.062
EINATPKGWSCHWDRDHRRYFYVNEQSGESQWQFPDGEEEEEES | -0.009 ± 0.085
EINATPKGWSCHWDRDHRRYFYVNEQSGESQWIFPDGEEEEEES | -0.284 ± 0.28
EINATPKGWSCHWDRDHRRYFYVNEQSGESQWYFPDGEEEEEES | -0.892 ± 0.24
EINATPKGWSCHWDRDHRRYFYVNEQSGESQWHFPDGEEEEEES | -0.408 ± 0.17
EINATPKGWSCHWDRDHRRYFYVNEQSGESQWMFPDGEEEEEES | -0.341 ± 0.09
EINATPKGWSCHWDRDHRRYFYVNEQSGESQWPFPDGEEEEEES | -0.59 ± 0.083
EINATPKGWSCHWDRDHRRYFYVNEQSGESQWVFPDGEEEEEES | -0.456 ± 0.068
EINATPKGWSCHWDRDHRRYFYVNEQSGESQWWFPDGEEEEEES | -0.429 ± 0.063
EINATPKGWSCHWDRDHRRYFYVNEQSGESQWTFPDGEEEEEES | -0.078 ± 0.08
EINATPKGWSCHWDRDHRRYFYVNEQSGESQWSFPDGEEEEEES | -0.184 ± 0.082
EINATPKGWSCHWDRDHRRYFYVNEQSGESQWGFPDGEEEEEES | -0.168 ± 0.067

Variant | abundance fitness
EINATPKGWSCHWDRDHRRYFYVNEQSGESQWAFPDGEEEEEES | -0.064 ± 0.062
EINATPKGWSCHWDRDHRRYFYVNEQSGESQWLFPDGEEEEEES | -0.401 ± 0.072
EINATPKGWSCHWDRDHRRYFYVNEQSGESQWFFPDGEEEEEES | -0.497 ± 0.081
EINATPKGWSCHWDRDHRRYFYVNEQSGESQWRFPDGEEEEEES | -0.241 ± 0.055
EINATPKGWSCHWDRDHRRYFYVNEQSGESQWCFPDGEEEEEES | -0.355 ± 0.25
EINATPKGWSCHWDRDHRRYFYVNEQSGESQWDFPDGEEEEEES | -0.237 ± 0.15
EINATPKGWSCHWDRDHRRYFYVNEQSGESQWNFPDGEEEEEES | 0.031 ± 0.094
EINATPKGWSCHWDRDHRRYFYVNEQSGESQREFPDGEEEEEES | -0.324 ± 0.064
EINATPKGWSCHWDRDHRRYFYVNEQSGESQIEFPDGEEEEEES | 0.001 ± 0.13
EINATPKGWSCHWDRDHRRYFYVNEQSGESQDEFPDGEEEEEES | -0.364 ± 0.14
EINATPKGWSCHWDRDHRRYFYVNEQSGESQGEFPDGEEEEEES | -0.28 ± 0.061
EINATPKGWSCHWDRDHRRYFYVNEQSGESQHEFPDGEEEEEES | -0.157 ± 0.25
EINATPKGWSCHWDRDHRRYFYVNEQSGESQSEFPDGEEEEEES | -0.23 ± 0.066
EINATPKGWSCHWDRDHRRYFYVNEQSGESQAEFPDGEEEEEES | -0.226 ± 0.079
EINATPKGWSCHWDRDHRRYFYVNEQSGESQYEFPDGEEEEEES | -0.169 ± 0.12
EINATPKGWSCHWDRDHRRYFYVNEQSGESQLEFPDGEEEEEES | -0.002 ± 0.07
EINATPKGWSCHWDRDHRRYFYVNEQSGESQKEFPDGEEEEEES | -0.246 ± 0.079
EINATPKGWSCHWDRDHRRYFYVNEQSGESQCEFPDGEEEEEES | -0.305 ± 0.11
EINATPKGWSCHWDRDHRRYFYVNEQSGESQVEFPDGEEEEEES | -0.093 ± 0.091
EINATPKGWSCHWDRDHRRYFYVNEQSGESQMEFPDGEEEEEES | -0.243 ± 0.098

Variant | abundance fitness
EINATPKGWSCHWDRDHRRYFYVNEQSGESQEEFPDGEEEEEES | -0.273 ± 0.086
EINATPKGWSCHWDRDHRRYFYVNEQSGESQFEFPDGEEEEEES | 0.047 ± 0.15
EINATPKGWSCHWDRDHRRYFYVNEQSGESFWEFPDGEEEEEES | -0.416 ± 0.082
EINATPKGWSCHWDRDHRRYFYVNEQSGESEWEFPDGEEEEEES | -0.707 ± 0.081
EINATPKGWSCHWDRDHRRYFYVNEQSGESKWEFPDGEEEEEES | -0.32 ± 0.11
EINATPKGWSCHWDRDHRRYFYVNEQSGESVWEFPDGEEEEEES | -0.153 ± 0.061
EINATPKGWSCHWDRDHRRYFYVNEQSGESCWEFPDGEEEEEES | -0.129 ± 0.093
EINATPKGWSCHWDRDHRRYFYVNEQSGESAWEFPDGEEEEEES | -0.377 ± 0.065
EINATPKGWSCHWDRDHRRYFYVNEQSGESWWEFPDGEEEEEES | -0.613 ± 0.062
EINATPKGWSCHWDRDHRRYFYVNEQSGESHWEFPDGEEEEEES | -0.47 ± 0.087
EINATPKGWSCHWDRDHRRYFYVNEQSGESSWEFPDGEEEEEES | -0.293 ± 0.087
EINATPKGWSCHWDRDHRRYFYVNEQSGESNWEFPDGEEEEEES | -0.742 ± 0.33
EINATPKGWSCHWDRDHRRYFYVNEQSGESMWEFPDGEEEEEES | -0.451 ± 0.12
EINATPKGWSCHWDRDHRRYFYVNEQSGESLWEFPDGEEEEEES | -0.383 ± 0.07
EINATPKGWSCHWDRDHRRYFYVNEQSGESRWEFPDGEEEEEES | -0.075 ± 0.059
EINATPKGWSCHWDRDHRRYFYVNEQSGESTWEFPDGEEEEEES | -0.115 ± 0.078
EINATPKGWSCHWDRDHRRYFYVNEQSGESPWEFPDGEEEEEES | -0.819 ± 0.18
EINATPKGWSCHWDRDHRRYFYVNEQSGESIWEFPDGEEEEEES | -0.472 ± 0.1

Reference: the Human Domainome abundance scans (Beltran et al. 2025)
